From paper PMC10707181, “Neuronal Scaffold Protein ARMS Interacts with Synaptotagmin-4 C2AB through the Ankyrin Repeat Domain with an Unexpected Mode” (International Journal of Molecular Sciences, 2023)

B1: ARMS ankyrin repeats 1–11 (R1-11, residues 1–365) [rat] / Syt4 132–425 [human] (parent complex)
chain 1: MSVLISQSVINYVEEENIPALKALLEKCKDVDERNECGQTPLMLAAEQGNVEIVKELLKNGANCNLEDLDNWTALISASKEGHIHIVEELLKSGASLEHRDMGGWTALMWACYKGRTDVVELLLSHGANPSVTGLYSVYPIIWAAGRGHADIVHLLLQNGAKVNCSDKYGTTPLVWAARKGHLECVKHLLAMGADVDQEGANSMTALIVAVKGGYTQSVKEILKRNPNVNLTDKDGNTALMIASKEGHIEIVQDLLDAGTYVNIPDRSGDTVLIGAVRGGHVEIVRALLQKYADIDIRGQDNKTALYWAVEKGNATMVRDILQCNPDTEICTKDGETPLIKATKMRNIEVVELLLDKGAKVSAVD
chain 2: ESVSPESLKSSTSLTSEEKQEKLGTLFFSLEYNFERKAFVVNIKEARGLPAMDEQSMTSDPYIKMTILPEKKHKVKTRVLRKTLDPAFDETFTFYGIPYTQIQELALHFTILSFDRFSRDDIIGEVLIPLSGIELSEGKMLMNREIIKRNVRKSSGRGELLISLCYQSTTNTLTVVVLKARHLPKSDVSGLSDPYVKVNLYHAKKRISKKKTHVKKCTPNAVFNELFVFDIPCEGLEDISVEFLVLDSERGSRNEVIGQLVLGAAAEGTGGEHWKEICDYPRRQIAKWHVLCDG

Variants of: B1
Experiment: ITC; parent: 1.2e+04 nM

Kd | Variant
4 µM | chain 2 R152A, chain 2 K153A
9 µM | chain 2 K148A, chain 2 R149A
3 µM | chain 2 Q55A
19 µM | chain 2 K148A, chain 2 R149A, chain 2 R152A
10 µM | chain 2 R157A
4 µM | chain 2 R152A
3 µM | chain 2 K153A
